Measured values taken from PMC2896474, “Thioredoxin A Active-Site Mutants Form Mixed Disulfide Dimers That Resemble Enzyme–Substrate Reaction Intermediates” (Journal of Molecular Biology, 2008).
Residue numbers refer to the chain shown, from its start. In names and notes the source's numbering stands.

Biological target: the molecule itself
Assay: nonreducing SDS-PAGE + capillary gel electrophoresis (2100 Bioanalyzer); purified His6-tagged BsTrxA proteins alone, ~2.5 μg a lane, nonreducing conditions (no DTT, no AMS); peak integration for dimer-to-monomer ratios; dimer to monomers (Fig. 2a)

B1: C32S single-mutant BsTrxA, C-terminal His6-tag (enzyme, B. subtilis 168, UniProt P14949 1-104, looked up)
chain: MAIVKATDQSFSAETSEGVVLADFWAPWCGPSKMIAPVLEELDQEMGDKLKIVKIDVDENQETAGKYGVMSIPTLLVLKDGEVVETSVGFKPKEALQELVNKHL
notes: In the homodimer the two chains are joined by a Cys29-Cys29 disulfide bond (crystal structure 2VOC); Vector probably adds Leu-Glu before His6 (surmised); also called C32S BsTrxA; TrxA C32S; source: E. coli BL21(DE3), purified (nickel IMAC HisTrap HP, Superdex 75 gel filtration); not shown: His6, C-terminal, kept
stoichiometry N: 2

B2: C29S single-mutant BsTrxA, C-terminal His6-tag (enzyme, B. subtilis 168, UniProt P14949 1-104, looked up)
chain: B1 chain with C29S, S32C
notes: Vector probably adds Leu-Glu before His6 (surmised); also called C29S BsTrxA; BsTrxA(C29S); source: E. coli BL21(DE3), purified (nickel IMAC HisTrap HP, Superdex 75 gel filtration); not shown: His6, C-terminal, kept
stoichiometry N: 2
